Values quoted from earlier work as cited in article PMC2846219.
Read-outs that look alike come from different tables or passages of the source.

Tests used:
PCNA (Homo sapiens) [1] = target: PCNA (Homo sapiens) (UniProt P12004)
PCNA (Homo sapiens) [2] = target: PCNA (Homo sapiens) (UniProt P12004); remark: listed apart in the source

Sequence of UniProt P12004 (P12004 whole entry): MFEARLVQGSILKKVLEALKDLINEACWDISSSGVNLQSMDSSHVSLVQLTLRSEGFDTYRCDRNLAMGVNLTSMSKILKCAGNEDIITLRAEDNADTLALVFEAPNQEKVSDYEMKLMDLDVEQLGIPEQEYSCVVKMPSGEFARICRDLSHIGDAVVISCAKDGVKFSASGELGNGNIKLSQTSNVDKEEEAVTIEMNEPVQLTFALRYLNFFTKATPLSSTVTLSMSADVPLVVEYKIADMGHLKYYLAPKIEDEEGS

Row | Kd (PCNA (Homo sapiens) [1]) [nM] | Kd (PCNA (Homo sapiens) [2]) [nM] | Substance
1 | 400 |  | DNA polymerase eta PIP peptide PIP peptide (from UniProt Q9Y253)
2 |  | 390 | DNA polymerase iota PIP peptide PIP peptide (from UniProt Q9UNA4)
